Among the data in article PMC3880588 are Kd and fold decrease in binding affinity vs WT (fold lower affinity than WT MBNL1-N) values, retold here.

Positions count from the first letter of the chain named.

What all share (assay): EMSA
Data set [1] has as its system T1, MBNL-N-M12 F36A;Y68A, Q9NR56-5.
T1 sequence: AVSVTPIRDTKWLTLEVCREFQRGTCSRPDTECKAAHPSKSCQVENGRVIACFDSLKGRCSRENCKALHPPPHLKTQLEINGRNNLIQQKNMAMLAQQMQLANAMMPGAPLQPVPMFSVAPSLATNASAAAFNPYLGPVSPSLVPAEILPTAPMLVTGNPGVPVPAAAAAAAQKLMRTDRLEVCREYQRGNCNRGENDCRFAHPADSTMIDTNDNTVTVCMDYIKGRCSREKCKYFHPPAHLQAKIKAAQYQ
To be noted: no stable complex up to 2 uM; EMSA: 10 mM HEPES pH 7.9, 3 mM MgCl2, 10 uM ZnCl2, 5% glycerol, 1 mM DTT, 20 ug/ml rRNA, 10 fmol RNA in 5 ul, 30 C 15 min, then heparin 5 min; 5% PAGE at 4 C ….

In data set [2] the test system is T2, MBNL1-2-72, Q9NR56-5.
T2 sequence: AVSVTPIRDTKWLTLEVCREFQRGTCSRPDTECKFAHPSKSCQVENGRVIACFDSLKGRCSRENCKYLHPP
To be noted: no binding at any concentration (up to 2000 nM); EMSA: 10 mM HEPES pH 7.9, 3 mM MgCl2, 10 uM ZnCl2, 5% glycerol, 1 mM DTT, 20 ug/ml rRNA, 10 fmol RNA in 5 ul, 30 C 15 min, then heparin 5 min; 5% PAGE at 4 C ….

The subject of data set [3] is T3, MBNL-N-M34 F202A;Y236A, Q9NR56-5.
T3 sequence: T1 sequence with A35F, A67Y, F201A, Y235A
To be noted: EMSA: 10 mM HEPES pH 7.9, 3 mM MgCl2, 10 uM ZnCl2, 5% glycerol, 1 mM DTT, 20 ug/ml rRNA, 10 fmol RNA in 5 ul, 30 C 15 min, then heparin 5 min; 5% PAGE at 4 C ….

Regarding “GGGAGACAAGCUUAAGUCUACGCACCCUCAACCCGCACCUUGCGGGAUCACGCUGCCUGCUGCACCCCACCCCCUUCCCCCUUCCUUCCCCCCACCCCCGUACUCCACUGCCAACUCCCAG [Tpm1 URE RNA]”, the Kd in data set [1] and in data set [2] was above 2 µM each time. For the same sequence, the fold decrease in binding affinity vs WT (fold lower affinity than WT MBNL1-N) in data set [3] stood at 20.
Consider “GGGAGACAAGCUUGAGCUGGAUGCCGCCUCUGCUGCUGC [Tpm1 Dugc RNA]”, for which the Kd in data set [1] and in data set [2] was above 2 µM each time. The sequence also returned a fold decrease in binding affinity vs WT (fold lower affinity than WT MBNL1-N) in data set [3] of 20.
For “GGGAGACAAGCUUUGCAAACUGUUAAUCUCAACUAACUGCCGCUUAAAUAAUUAGUGCAGCUUUUAACUACUGGUUCUGUCCCAACUGGCUACUUGUGCCUAAAGCCCAAAGAAUU [Vldlr RNA]”, the Kd in data set [1] and in data set [2] was above 2 µM in each case. In data set [3], this sequence had a fold decrease in binding affinity vs WT (fold lower affinity than WT MBNL1-N) of 20.
